Data on ten proteins can be found in doi:10.1101/2025.04.13.648610, “Catalytic Mechanism and Differential Alarmone Regulation of a Conserved Stringent Nucleosidase” (bioRxiv, 2025).

Where a chain is given by its changes, count along the chain named. Names and notes keep the numbering of the source.

One may read the stoichiometry N as a count of units in the complex or per binding partner.

First the molecules themselves.
B1: PpnN M190A (enzyme, Escherichia coli, UniProt P0ADR8 1-454, looked up)
chain: MITHISPLGSMDMLSQLEVDMLKRTASSDLYQLFRNCSLAVLNSGSLTDNSKELLSRFENFDINVLRRERGVKLELINPPEEAFVDGRIIRALQANLFAVLRDILFVYGQIHNTVRFPNLNLDNSVHITNLVFSILRNARALHVGEAPNMVVCWGGHSINENEYLYARRVGNQLGLRELNICTGCGPGAAEAPMKGAAVGHAQQRYKDSRFIGMTEPSIIAAEPPNPLVNELIIMPDIEKRLEAFVRIAHGIIIFPGGVGTAEELLYLLGILMNPANKDQVLPLILTGPKESADYFRVLDEFVVHTLGENARRHYRIIIDDAAEVARQMKKSMPLVKENRRDTGDAYSFNWSMRIAPDLQMPFEPSHENMANLKLYPDQPVEVLAADLRRAFSGIVAGNVKEVGIRAIEEFGPYKINGDKEIMRRMDDLLQGFVAQHRMKLPGSAYIPCYEICT
notes: PpnN (previously YgdH), nucleosidase, Escherichia coli, with M190A; Made by quick-change mutagenesis on pCA24N-ppnN (wt); also called M190A variant; source: E. coli BL21 (DE3) ΔppnN, purified (Ni-NTA, Superdex 200)
B2: PpnN R241A (enzyme, Escherichia coli, UniProt P0ADR8 1-454, looked up)
chain: B1 chain with A190M, R241A
notes: PpnN (previously YgdH), nucleosidase, Escherichia coli, with R241A; Made by quick-change mutagenesis on pCA24N-ppnN (wt); also called R241A variant; source: E. coli BL21 (DE3) ΔppnN, purified (Ni-NTA, Superdex 200)
B3: PpnN T261A (enzyme, Escherichia coli, UniProt P0ADR8 1-454, looked up)
chain: B1 chain with A190M, T261A
notes: PpnN (previously YgdH), nucleosidase, Escherichia coli, with T261A; Made by quick-change mutagenesis on pCA24N-ppnN (wt); also called T261A variant; source: E. coli BL21 (DE3) ΔppnN, purified (Ni-NTA, Superdex 200)
B4: PpnN E223A (enzyme, Escherichia coli, UniProt P0ADR8 1-454, looked up)
chain: B1 chain with A190M, E223A
notes: PpnN (previously YgdH), nucleosidase, Escherichia coli, with E223A; Made by quick-change mutagenesis on pCA24N-ppnN (wt); also called E223A variant; source: E. coli BL21 (DE3) ΔppnN, purified (Ni-NTA, Superdex 200)
B5: PpnN H157A (enzyme, Escherichia coli, UniProt P0ADR8 1-454, looked up)
chain: B1 chain with H157A, A190M
notes: PpnN (previously YgdH), nucleosidase, Escherichia coli, with H157A; Made by quick-change mutagenesis on pCA24N-ppnN (wt); also called H157A variant; source: E. coli BL21 (DE3) ΔppnN, purified (Ni-NTA, Superdex 200)
B6: PpnN E263A (enzyme, Escherichia coli, UniProt P0ADR8 1-454, looked up)
chain: B1 chain with A190M, E263A
notes: PpnN (previously YgdH), nucleosidase, Escherichia coli, with E263A; Made by quick-change mutagenesis on pCA24N-ppnN (wt); also called E263A variant; source: E. coli BL21 (DE3) ΔppnN, purified (Ni-NTA, Superdex 200)
B7: PpnN K195A (enzyme, Escherichia coli, UniProt P0ADR8 1-454, looked up)
chain: B1 chain with A190M, K195A
notes: PpnN (previously YgdH), nucleosidase, Escherichia coli, with K195A; Made by quick-change mutagenesis on pCA24N-ppnN (wt); source: E. coli BL21 (DE3) ΔppnN, purified (Ni-NTA, Superdex 200)
B8: PpnN D49A (enzyme, Escherichia coli, UniProt P0ADR8 1-454, looked up)
chain: B1 chain with D49A, A190M
notes: PpnN (previously YgdH), nucleosidase, Escherichia coli, with D49A; Made by quick-change mutagenesis on pCA24N-ppnN (wt); source: E. coli BL21 (DE3) ΔppnN, purified (Ni-NTA, Superdex 200)
B9: PpnN (wild type), nucleosidase of Escherichia coli (enzyme, UniProt P0ADR8 1-454, looked up)
chain: B1 chain with A190M
notes: PpnN (previously YgdH), nucleosidase, Escherichia coli; PAG1 domain 1-150, catalytic domain 151-329, PAG2 domain 330-454; also called wt PpnN; PpnNwt; source: E. coli BL21 (DE3) ΔppnN (ppnN::kan), purified (Ni-NTA, Superdex 200 for biochemistry; HisTrap, SourceQ, Superdex 200 Increase for crystallisation); not shown: His6, N-terminal, kept
B10: PpnN E264A (enzyme, Escherichia coli, UniProt P0ADR8 1-454, looked up)
chain: B1 chain with A190M, E264A
notes: PpnN (previously YgdH), nucleosidase, Escherichia coli, with E264A; Made by quick-change mutagenesis on pCA24N-ppnN (wt); also called E264A 4:4 PpnN; E264A variant; source: E. coli BL21 (DE3) ΔppnN (ppnN::kan), purified (Ni-NTA, Superdex 200 for biochemistry; HisTrap, SourceQ, Superdex 200 Increase for crystallisation)

The first series deals with the molecule itself. The series can be described thus: SEC; Superdex 200 10/300 GL in 50 mM Tris-HCl pH 7.5, 200 mM NaCl, 5% glycerol, 5 mM BME; elution profiles of variants compared with wt PpnN. A general note: Size exclusion chromatography separates by hydrodynamic size, large species first.
Consider B1, for which the “stoichiometry N” value turned out to be 4.
With B2, the “stoichiometry N” value came to 4.
Take B3: the “stoichiometry N” value worked out at 4.
On to B4, for which the “stoichiometry N” value came to 4.
B5: the “stoichiometry N” value amounted to 4.
Same read-out and setting: to B6 belongs 4; to B7, 4.
Still for that read-out and setting: to B8 belongs 4.

Another series concerns the molecule itself. Description: crystal structure; wt PpnN co-crystallised with pppGpp (3:4 PpnN; pppGpp on three of four subunits; R5P and guanine in the active sites); 6-8 mg/ml PpnN, 1-2 mM ligand.
As for B9, the “stoichiometry N” value turned out to be 4.

Another series concerns the molecule itself. The series can be described thus: crystal structure; PpnN E264A co-crystallised with pppGpp and 2 mM GMP (E264A 4:4 PpnN; four pppGpp and four R5P bound); 6-8 mg/ml PpnN; 3.5 Å.
Consider B10, for which the “stoichiometry N” value came out at 4.
